B1: Ankyrin-3, residues 4094 to 4171; numbered along this chain, Q12955 (parent)
chain: MAIVADHLGLSWTELARELNFSVDEINQIRVENPNSLISQSFMLLKKWVTRDGKNATTDALTSVLTKINRIDIVTLLE

± gives the uncertainty stated by the source.

Experimental findings from the Human Domainome abundance scans (Beltran et al. 2025) are described below.

Variants of B1 are the subject of the data set. The experiment in a line: abundance fitness (aPCA) (normalised: wild type 0, dead -1); higher = more abundant; growth selection in yeast, the domain comes from the species named. The settings on record: Homo sapiens.
For MAIVADHLGLSWTELARELNFSVDEINQIRVENPNSLISQSFMLLKKWVTRDGDNATTDALTSVLTKINRIDIVTLLE [K54D], the abundance fitness is -0.233 ± 0.15.
For MAIVADHLGLSWTELARELNFSVDEINQIRVENPNSLISQSFMLLKKWVTRDGQNATTDALTSVLTKINRIDIVTLLE [K54Q] the value was -0.054 ± 0.085.
The same measure for MAIVADHLGLSWTELARELNFSVDEINQIRVENPNSLISQSFMLLKKWVTRDGHNATTDALTSVLTKINRIDIVTLLE [K54H]: 0.037 ± 0.14; for MAIVADHLGLSWTELARELNFSVDEINQIRVENPNSLISQSFMLLKKWVTRDGCNATTDALTSVLTKINRIDIVTLLE [K54C]: -0.088 ± 0.076; for MAIVADHLGLSWTELARELNFSVDEINQIRVENPNSLISQSFMLLKKWVTRDGPNATTDALTSVLTKINRIDIVTLLE [K54P]: -0.107 ± 0.076.
Take MAIVADHLGLSWTELARELNFSVDEINQIRVENPNSLISQSFMLLKKWVTRDGRNATTDALTSVLTKINRIDIVTLLE [K54R]: the abundance fitness was -0.064 ± 0.042.
For MAIVADHLGLSWTELARELNFSVDEINQIRVENPNSLISQSFMLLKKWVTRDGYNATTDALTSVLTKINRIDIVTLLE [K54Y] the value was -0.147 ± 0.079; for MAIVADHLGLSWTELARELNFSVDEINQIRVENPNSLISQSFMLLKKWVTRDGENATTDALTSVLTKINRIDIVTLLE [K54E], -0.132 ± 0.11; for MAIVADHLGLSWTELARELNFSVDEINQIRVENPNSLISQSFMLLKKWVTRDGWNATTDALTSVLTKINRIDIVTLLE [K54W], -0.21 ± 0.07.
The same measure for MAIVADHLGLSWTELARELNFSVDEINQIRVENPNSLISQSFMLLKKWVTRDGINATTDALTSVLTKINRIDIVTLLE [K54I]: 0.065 ± 0.12; for MAIVADHLGLSWTELARELNFSVDEINQIRVENPNSLISQSFMLLKKWVTRDGVNATTDALTSVLTKINRIDIVTLLE [K54V]: 0.038 ± 0.055.
Regarding MAIVADHLGLSWTELARELNFSVDEINQIRVENPNSLISQSFMLLKKWVTRDGLNATTDALTSVLTKINRIDIVTLLE [K54L], the abundance fitness was -0.051 ± 0.048.
As for MAIVADHLGLSWTELARELNFSVDEINQIRVENPNSLISQSFMLLKKWVTRDGNNATTDALTSVLTKINRIDIVTLLE [K54N], the abundance fitness is -0.316 ± 0.34.
For MAIVADHLGLSWTELARELNFSVDEINQIRVENPNSLISQSFMLLKKWVTRDGSNATTDALTSVLTKINRIDIVTLLE [K54S] the value was 0.049 ± 0.058.
For MAIVADHLGLSWTELARELNFSVDEINQIRVENPNSLISQSFMLLKKWVTRDGFNATTDALTSVLTKINRIDIVTLLE [K54F] the value was -0.156 ± 0.088; for MAIVADHLGLSWTELARELNFSVDEINQIRVENPNSLISQSFMLLKKWVTRDGMNATTDALTSVLTKINRIDIVTLLE [K54M], -0.1 ± 0.073; for MAIVADHLGLSWTELARELNFSVDEINQIRVENPNSLISQSFMLLKKWVTRDGTNATTDALTSVLTKINRIDIVTLLE [K54T], -0.121 ± 0.082.
The same measure for MAIVADHLGLSWTELARELNFSVDEINQIRVENPNSLISQSFMLLKKWVTRDGANATTDALTSVLTKINRIDIVTLLE [K54A]: -0.019 ± 0.059; for MAIVADHLGLSWTELARELNFSVDEINQIRVENPNSLISQSFMLLKKWVTRDTKNATTDALTSVLTKINRIDIVTLLE [G53T]: -0.521 ± 0.14; for MAIVADHLGLSWTELARELNFSVDEINQIRVENPNSLISQSFMLLKKWVTRDRKNATTDALTSVLTKINRIDIVTLLE [G53R]: -0.367 ± 0.057.
With MAIVADHLGLSWTELARELNFSVDEINQIRVENPNSLISQSFMLLKKWVTRDVKNATTDALTSVLTKINRIDIVTLLE [G53V], the abundance fitness was -0.672 ± 0.089.
The same measure for MAIVADHLGLSWTELARELNFSVDEINQIRVENPNSLISQSFMLLKKWVTRDSKNATTDALTSVLTKINRIDIVTLLE [G53S]: -0.325 ± 0.046; for MAIVADHLGLSWTELARELNFSVDEINQIRVENPNSLISQSFMLLKKWVTRDYKNATTDALTSVLTKINRIDIVTLLE [G53Y]: -0.962 ± 0.44; for MAIVADHLGLSWTELARELNFSVDEINQIRVENPNSLISQSFMLLKKWVTRDWKNATTDALTSVLTKINRIDIVTLLE [G53W]: -0.849 ± 0.16.
The same measure for MAIVADHLGLSWTELARELNFSVDEINQIRVENPNSLISQSFMLLKKWVTRDQKNATTDALTSVLTKINRIDIVTLLE [G53Q]: -0.065 ± 0.059; for MAIVADHLGLSWTELARELNFSVDEINQIRVENPNSLISQSFMLLKKWVTRDGKNAPTDALTSVLTKINRIDIVTLLE [T57P]: -0.896 ± 0.15.
The same measure for MAIVADHLGLSWTELARELNFSVDEINQIRVENPNSLISQSFMLLKKWVTRDGKNAITDALTSVLTKINRIDIVTLLE [T57I]: -0.779 ± 0.3; for MAIVADHLGLSWTELARELNFSVDEINQIRVENPNSLISQSFMLLKKWVTRDGKNAETDALTSVLTKINRIDIVTLLE [T57E]: -0.859 ± 0.17.
In the case of MAIVADHLGLSWTELARELNFSVDEINQIRVENPNSLISQSFMLLKKWVTRDGKNAGTDALTSVLTKINRIDIVTLLE [T57G], the abundance fitness is -0.387 ± 0.06.
For MAIVADHLGLSWTELARELNFSVDEINQIRVENPNSLISQSFMLLKKWVTRDGKNAATDALTSVLTKINRIDIVTLLE [T57A] the value was -0.195 ± 0.066; for MAIVADHLGLSWTELARELNFSVDEINQIRVENPNSLISQSFMLLKKWVTRDGKNADTDALTSVLTKINRIDIVTLLE [T57D], -0.108 ± 0.11; for MAIVADHLGLSWTELARELNFSVDEINQIRVENPNSLISQSFMLLKKWVTRDGKNAMTDALTSVLTKINRIDIVTLLE [T57M], -0.394 ± 0.11.
The same measure for MAIVADHLGLSWTELARELNFSVDEINQIRVENPNSLISQSFMLLKKWVTRDGKNANTDALTSVLTKINRIDIVTLLE [T57N]: 0.079 ± 0.12; for MAIVADHLGLSWTELARELNFSVDEINQIRVENPNSLISQSFMLLKKWVTRDGKNAKTDALTSVLTKINRIDIVTLLE [T57K]: -0.739 ± 0.25.
For MAIVADHLGLSWTELARELNFSVDEINQIRVENPNSLISQSFMLLKKWVTRDGKNALTDALTSVLTKINRIDIVTLLE [T57L] the value was -0.798 ± 0.098.
